Results: IntAct's records for PubMed 18239685

Target: taxb1_human TAX1BP1 (UniProt Q86VP1)

Polyubiquitin-C (Homo sapiens) (from UniProt P0CG48) I44A
effect of a mutation on the interaction: decreasing interaction
